Measured values from publication PMC9127186, “Molecular Basis Underlying Hepatobiliary and Renal Excretion of Phenolic Acids of Salvia miltiorrhiza Roots (Danshen)” (Frontiers in Pharmacology, 2022).
Values belong to the molecule of their own block, whether it stands above or below them.

Tests used:
[1] = biological target: T1, human BCRP (Homo sapiens, UniProt Q9UNQ0); experiment: Vesicular transport assay, inside-out membrane vesicles expressing human BCRP; conditions: positive substrate 20 μM, 10 min; human BCRP
T1 sequence (Q9UNQ0 1-655): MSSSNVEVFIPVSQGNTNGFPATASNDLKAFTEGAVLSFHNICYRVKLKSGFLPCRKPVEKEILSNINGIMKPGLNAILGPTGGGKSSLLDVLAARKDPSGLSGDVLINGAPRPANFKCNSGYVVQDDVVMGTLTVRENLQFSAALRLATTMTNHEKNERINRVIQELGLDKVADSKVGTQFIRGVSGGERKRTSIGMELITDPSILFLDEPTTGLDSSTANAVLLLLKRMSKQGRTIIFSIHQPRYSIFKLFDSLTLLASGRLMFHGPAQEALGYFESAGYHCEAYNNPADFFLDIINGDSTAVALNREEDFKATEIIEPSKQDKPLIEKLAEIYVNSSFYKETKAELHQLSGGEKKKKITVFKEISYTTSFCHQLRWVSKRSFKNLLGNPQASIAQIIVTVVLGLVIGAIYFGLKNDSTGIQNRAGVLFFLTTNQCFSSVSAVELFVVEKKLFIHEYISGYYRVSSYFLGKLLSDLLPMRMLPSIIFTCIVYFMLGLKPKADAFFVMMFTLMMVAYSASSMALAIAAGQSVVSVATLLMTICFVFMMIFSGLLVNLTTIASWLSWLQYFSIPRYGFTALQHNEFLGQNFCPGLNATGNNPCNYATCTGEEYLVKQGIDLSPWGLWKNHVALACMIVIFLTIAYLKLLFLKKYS
Protocol: (§1) Inside-out membrane vesicles (5 mg protein/mL), prepared from insect cells expressing human multidrug resistance-associated protein (MRP) 2, MRP3, MRP4, breast cancer resistance protein (BCRP), bile salt export pump (BSEP), and multidrug resistance protein (MDR) one and rat Mrp2, Mrp4, Bcrp, and Bsep, and vesicles (5 mg protein/mL; prepared from the insect cells expressing no ABC transporter; serving as negative control) were obtained from Genomembrane (Kanazawa, Japan).
(§2) The test Danshen compounds at 100 µM final concentration were separately incubated with the membrane vesicles for 10 min. Buffer C (50 mM MOPS-tris, 70 mM KCl, 7.5 mM MgCl2, pH 7.0) was used for preincubation and incubation, while buffer D (40 mM MOPS-tris, 70 mM KCl, pH 7.0) was used for vesicle washing. The transport rate (pmol/mg protein/min) of the test Danshen compound was calculated using Equation (2): Transport=(CV×VV)/T/WV (2) where C V, V V, T, and W V represent concentration of the compound in vesicular lysates supernatant (μM), volume of the lysates (μL), incubation time (10 min), and amount of vesicle protein amount per well (0.05 mg), respectively. Differential transport of the test Danshen compound between ATP-containing vesicles and AMP-containing vesicles was defined as net transport ratio (TransportATP/TransportAMP ratio). […] All the incubation samples were analyzed by liquid chromatography/mass spectrometry.

[2] = biological target: T2, rat Bcrp (Rattus norvegicus, UniProt Q80W57); experiment: Vesicular transport assay, inside-out membrane vesicles expressing rat Bcrp; conditions: positive substrate 20 μM, 10 min; rat Bcrp
T2 sequence (Q80W57 1-657): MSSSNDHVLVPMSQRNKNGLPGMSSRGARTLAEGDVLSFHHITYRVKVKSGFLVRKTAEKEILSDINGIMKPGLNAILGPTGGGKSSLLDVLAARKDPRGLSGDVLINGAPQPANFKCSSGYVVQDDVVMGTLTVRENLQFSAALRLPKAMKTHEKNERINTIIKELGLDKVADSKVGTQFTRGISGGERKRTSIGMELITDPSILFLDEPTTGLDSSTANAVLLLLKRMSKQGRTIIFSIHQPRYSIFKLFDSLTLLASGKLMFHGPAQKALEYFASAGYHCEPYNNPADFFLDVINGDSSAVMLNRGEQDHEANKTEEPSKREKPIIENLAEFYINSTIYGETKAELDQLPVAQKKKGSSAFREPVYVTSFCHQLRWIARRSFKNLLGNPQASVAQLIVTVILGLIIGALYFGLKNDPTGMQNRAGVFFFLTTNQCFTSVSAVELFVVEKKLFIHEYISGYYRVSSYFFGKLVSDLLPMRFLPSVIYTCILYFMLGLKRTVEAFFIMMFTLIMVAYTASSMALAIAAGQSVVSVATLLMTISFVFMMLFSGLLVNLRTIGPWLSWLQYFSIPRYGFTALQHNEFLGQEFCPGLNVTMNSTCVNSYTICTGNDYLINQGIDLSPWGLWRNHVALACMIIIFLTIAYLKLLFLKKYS
Protocol: as §1, §2

[3] = substrate: O=C(/C=C/c1ccc(O)c(O)c1)O[C@H](Cc1ccc(O)c(O)c1)C(=O)O; experiment: cells, lysate or membranes named; conditions: 5 min incubation, concentrations in Table 1, 37.0 °C
[4] = substrate: O=C(O)Cc1c(/C=C/C(=O)OC(Cc2ccc(O)c(O)c2)C(=O)O)ccc(O)c1O; experiment: cells, lysate or membranes named; conditions: 5 min incubation, concentrations in Table 1, 37.0 °C
[5] = substrate: O=C(O)c1ccc(O)c(O)c1; experiment: cells, lysate or membranes named; conditions: 5 min incubation, concentrations in Table 1, 37.0 °C
[6] = other: human renal basolateral uptake OAT1
[7] = other: human hepatic sinusoidal uptake OAT2 (also renal basolateral)
[8] = other: rat renal basolateral uptake Oat1
[9] = other: rat hepatic sinusoidal uptake Oat2 (also renal apical)
[10] = other: rat renal basolateral uptake Oat3

TransportATP/TransportAMP ratio, positive substrate [1]: 4.45 ± 0.67 (MTX)
TransportATP/TransportAMP ratio, positive substrate [2]: 20.5 ± 3.2 (MTX)
Molecule: CN(Cc1cnc2nc(N)nc(N)c2n1)c1ccc(C(=O)N[C@@H](CCC(=O)O)C(=O)O)cc1 [MTX, methotrexate, reference compound]

B1: human OAT1 (Homo sapiens) (protein)
chain: MAFNDLLQQVGGVGRFQQIQVTLVVLPLLLMASHNTLQNFTAAIPTHHCRPPADANLSKNGGLEVWLPRDRQGQPESCLRFTSPQWGLPFLNGTEANGTGATEPCTDGWIYDNSTFPSTIVTEWDLVCSHRALRQLAQSLYMVGVLLGAMVFGYLADRLGRRKVLILNYLQTAVSGTCAAFAPNFPIYCAFRLLSGMALAGISLNCMTLNVEWMPIHTRACVGTLIGYVYSLGQFLLAGVAYAVPHWRHLQLLVSAPFFAFFIYSWFFIESARWHSSSGRLDLTLRALQRVARINGKREEGAKLSMEVLRASLQKELTMGKGQASAMELLRCPTLRHLFLCLSMLWFATSFAYYGLVMDLQGFGVSIYLIQVIFGAVDLPAKLVGFLVINSLGRRPAQMAALLLAGICILLNGVIPQDQSIVRTSLAVLGKGCLAASFNCIFLYTGELYPTMIRQTGMGMGSTMARVGSIVSPLVSMTAELYPSMPLFIYGAVPVAASAVTVLLPETLGQPLPDTVQDLESRWAPTQKEAGIYPRKGKQTRQQQEHQKYMVPLQASAQEKNGL
Vmax [3, 6]: 0.000181 µmol/min/mg
Vmax/Km [3, 6]: 2.55 µL/min/mg
Vmax [4, 6]: 3.76e-05 µmol/min/mg
Vmax/Km [4, 6]: 2.08 µL/min/mg
Vmax [5, 6]: 0.000242 µmol/min/mg

B2: human OAT2 (Homo sapiens) (protein)
chain: MGFEELLEQVGGFGPFQLRNVALLALPRVLLPLHFLLPIFLAAVPAHRCALPGAPANFSHQDVWLEAHLPREPDGTLSSCLRFAYPQALPNTTLGEERQSRGELEDEPATVPCSQGWEYDHSEFSSTIATEWDLVCEQKGLNRAASTFFFAGVLVGAVAFGYLSDRFGRRRLLLVAYVSTLVLGLASAASVSYVMFAITRTLTGSALAGFTIIVMPLELEWLDVEHRTVAGVLSSTFWTGGVMLLALVGYLIRDWRWLLLAVTLPCAPGILSLWWVPESARWLLTQGHVKEAHRYLLHCARLNGRPVCEDSFSQEAVSKVAAGERVVRRPSYLDLFRTPRLRHISLCCVVVWFGVNFSYYGLSLDVSGLGLNVYQTQLLFGAVELPSKLLVYLSVRYAGRRLTQAGTLLGTALAFGTRLLVSSDMKSWSTVLAVMGKAFSEAAFTTAYLFTSELYPTVLRQTGMGLTALVGRLGGSLAPLAALLDGVWLSLPKLTYGGIALLAAGTALLLPETRQAQLPETIQDVERKSAPTSLQEEEMPMKQVQN
Vmax [3, 7]: 0.000927 µmol/min/mg
Vmax/Km [3, 7]: 19.1 µL/min/mg
Vmax [4, 7]: 0.00269 ± 0.000114 µmol/min/mg
Vmax/Km [4, 7]: 24.3 µL/min/mg
Vmax [5, 7]: 0.00382 ± 0.000177 µmol/min/mg

B3: rat Oat1 (Rattus norvegicus) (protein)
chain: MAFNDLLKQVGGVGRFQLIQVTMVVAPLLLMASHNTLQNFTAAIPPHHCRPPANANLSKDGGLEAWLPLDKQGQPESCLRFTSPQWGPPFYNGTEANGTRVTEPCIDGWVYDNSTFPSTIVTEWNLVCSHRAFRQLAQSLYMVGVLLGAMVFGYLADRLGRRKVLILNYLQTAVSGTCAAYAPNYTVYCVFRLLSGMSLASIAINCMTLNVEWMPIHTRAYVGTLIGYVYSLGQFLLAGIAYAVPHWRHLQLVVSVPFFIAFIYSWFFIESARWYSSSGRLDLTLRALQRVARINGKQEEGAKLSIEVLRTSLQKELTLSKGQASAMELLRCPTLRHLFLCLSMLWFATSFAYYGLVMDLQGFGVSMYLIQVIFGAVDLPAKFVCFLVINSMGRRPAQMASLLLAGICILVNGIIPKSHTIIRTSLAVLGKGCLASSFNCIFLYTGELYPTVIRQTGLGMGSTMARVGSIVSPLVSMTAEFYPSMPLFIFGAVPVVASAVTALLPETLGQPLPDTVQDLKSRSRGKQNQQQQEQQKQMMPLQASTQEKNGL
Vmax [3, 8]: 0.000206 µmol/min/mg
Vmax/Km [3, 8]: 3.47 µL/min/mg
Vmax [4, 8]: 0.000115 µmol/min/mg
Vmax/Km [4, 8]: 4.72 µL/min/mg
Vmax [5, 8]: 0.000446 µmol/min/mg

B4: rat Oat2 (Rattus norvegicus) (protein)
chain: MGFEDLLDKVGGFGPFQLRNLVLMALPRMLLPMHFLLPVFMAAVPAHHCALPGAPANLSHQDLWLEAHLPRETDGSFSSCLRFAYPQTVPNVTLGTEVSNSGEPEGEPLTVPCSQGWEYDRSEFSSTIATEWDLVCQQRGLNKITSTCFFIGVLVGAVVYGYLSDRFGRRRLLLVAYVSSLVLGLMSAASINYIMFVVTRTLTGSALAGFTIIVLPLELEWLDVEHRTVAGVISTVFWSGGVLLLALVGYLIRSWRWLLLAATLPCVPGIISIWWVPESARWLLTQGRVEEAKKYLLSCAKLNGRPVGEGSLSQEALNNVVTMERALQRPSYLDLFRTSQLRHISLCCMMVWFGVNFSYYGLTLDVSGLGLNVYQTQLLFGAVELPSKIMVYFLVRRLGRRLTEAGMLLGAALTFGTSLLVSLETKSWITALVVVGKAFSEAAFTTAYLFTSELYPTVLRQTGLGLTALMGRLGASLAPLAALLDGVWLLLPKVAYGGIALVAACTALLLPETKKAQLPETIQDVERKSTQEEDV
Vmax [3, 9]: 0.00062 µmol/min/mg
Vmax/Km [3, 9]: 5.2 µL/min/mg
Vmax [4, 9]: 0.000164 µmol/min/mg
Vmax/Km [4, 9]: 2.73 µL/min/mg
Vmax [5, 9]: 0.00118 ± 1.9e-05 µmol/min/mg

B5: rat Oat3 (Rattus norvegicus) (protein)
chain: MTFSEILDRVGSMGPFQYLHVTLLALPVLGIANHNLLQIFTATTPVHHCRPPPNASIGPWVLPLDPNGKPEKCLRFVHLPNASLPNDTQRATEPCLDGWIYNSTRDTIVIEWDLVCSSNKLKEMAQSIFMAGILVGGPVIGELSDRFGRKPILTWSYLMLAASGSGAAFSPSLPVYMIFRFLCGCSISGISLSTVILNVEWVPTSMRAISSTSIGYCYTIGQFILSGLAYAIPQWRWLQLTSSAPFFIFSLLSWWVPESIRWLVLSGKYSKALKTLQRVATFNGKKEEGKKLTIEELKFNLQKDITSAKVKYGLSDLFRVSILRRVTFCLSLAWFSTGFAYYSLAMGVEEFGVNIYILQIIFGGVDIPAKFITILSLSYLGRRITQSFLLLLAGGAILALIFVPSEMQLLRTALAVFGKGCLSGSFSCLFLYTSELYPTVLRQTGMGISNVWARVGSMIAPLVKITGELQPFIPNVIFGTTALLGGSAAFFLLETLNRPLPETIEDIQNWHKQVQKTKQESEAEKASQIIPLKTGG
Vmax [3, 10]: 3.58e-06 µmol/min/mg
Vmax/Km [3, 10]: 0.15 µL/min/mg
Vmax [5, 10]: 6.68e-05 µmol/min/mg
